Laboratory results: US20050176630A1
Values belong to the molecule of their own block, whether it stands above or below them. No end group written: not given here.

Legend:
[1] = biological target: MC3-R in mouse arcuate nucleus slices (mouse) (UniProt P33033); assay: cell-based or functional assay
[2] = biological target: µ opioid receptor on POMC neurons in mouse hypothalamic slices (mouse) (UniProt P42866); assay: cell-based or functional assay
[3] = biological target: T1, NPY Y2 receptor (expressed on a cell line); assay: receptor-binding study on a cell line expressing the NPY Y2 receptor; labelled ligand not named
T1 sequence (P49146 whole entry, species assumed, looked up): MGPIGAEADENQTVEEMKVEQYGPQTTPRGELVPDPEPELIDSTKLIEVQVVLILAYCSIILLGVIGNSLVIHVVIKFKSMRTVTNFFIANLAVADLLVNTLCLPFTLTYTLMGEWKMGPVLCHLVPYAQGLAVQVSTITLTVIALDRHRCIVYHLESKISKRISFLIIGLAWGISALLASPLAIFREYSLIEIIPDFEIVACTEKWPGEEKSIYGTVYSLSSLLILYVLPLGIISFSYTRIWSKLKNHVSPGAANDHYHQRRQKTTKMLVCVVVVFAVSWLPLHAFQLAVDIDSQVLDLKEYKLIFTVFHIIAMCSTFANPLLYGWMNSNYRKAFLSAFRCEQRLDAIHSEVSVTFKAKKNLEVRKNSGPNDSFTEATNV

Chain of µ opioid receptor on POMC neurons in mouse hypothalamic slices (mouse) (P42866 whole entry): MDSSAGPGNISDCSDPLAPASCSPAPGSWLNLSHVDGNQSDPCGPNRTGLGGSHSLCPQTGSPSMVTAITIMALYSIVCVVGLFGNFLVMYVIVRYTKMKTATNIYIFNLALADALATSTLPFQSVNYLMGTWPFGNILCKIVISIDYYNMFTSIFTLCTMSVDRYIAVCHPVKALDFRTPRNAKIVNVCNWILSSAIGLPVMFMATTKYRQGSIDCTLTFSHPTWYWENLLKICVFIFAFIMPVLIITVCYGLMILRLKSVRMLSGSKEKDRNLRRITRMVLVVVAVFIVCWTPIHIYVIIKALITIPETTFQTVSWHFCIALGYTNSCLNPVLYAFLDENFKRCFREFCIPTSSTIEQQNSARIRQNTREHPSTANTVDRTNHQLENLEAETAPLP
Chain of MC3-R in mouse arcuate nucleus slices (mouse) (P33033 whole entry): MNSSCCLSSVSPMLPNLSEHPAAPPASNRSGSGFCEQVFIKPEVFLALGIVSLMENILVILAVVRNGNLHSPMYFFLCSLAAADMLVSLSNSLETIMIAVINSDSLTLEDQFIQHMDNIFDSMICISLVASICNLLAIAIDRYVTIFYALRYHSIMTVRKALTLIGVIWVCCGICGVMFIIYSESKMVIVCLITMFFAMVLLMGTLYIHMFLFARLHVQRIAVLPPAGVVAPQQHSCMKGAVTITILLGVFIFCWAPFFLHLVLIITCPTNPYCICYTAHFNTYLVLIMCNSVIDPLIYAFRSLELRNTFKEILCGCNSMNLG

- frequency of GABAergic IPSCs recorded from POMC neurons (D-Trp^8-γMSH 7 nM) [1]: 280%
Molecule: D-Trp^8-γMSH (peptide)

- hyperpolarization of the membrane potential of POMC cells (Met-Enk 30 µM) [2]: 10 to 20 mV
Molecule: met-enkephalin (from UniProt P01210 100-104) (peptide)

- IC50 [3]: 1.3 nM
Molecule: Ac-LRHYLNLLTRQRY (ends and bridges not checked) [N-acetyl (Leu^28, Leu^31) NPY (24-36)]
